The values below come from patent US20240043507A1.

The target in the first test is SARS-CoV-2 spike receptor binding domain (native RBD) (SARS-CoV-2) (UniProt P0DTC2).
Experiment: not given
What is called Kd is a measure of binding affinity in units of concentration. Higher therefore signals lower affinity. Substance AZD1061 (antibody) gave a Kd of 1.04 nM.

As to REGN10987 (antibody), the Kd amounted to 3.85 nM.

As for REGN10933 (antibody), the Kd was found to be 1.82 nM.

AZD8895 (antibody) gave a dissociation constant Kd of 1.49 nM.

The target in another test is SARS-CoV-2 receptor binding domain, native (501N) (SARS-CoV-2) (UniProt P0DTC2). Briefly: BLI, RBD immobilised on AR2G biosensor, 1:1 fit. On the technique in general: BLI is a label-free optical method that tracks binding on a fibre tip over time.
Turning to “REGN10987 as tested by BLI (Fab by the footnote of Table 12)”, the Kd worked out at 3.85 nM.

With “REGN10933 as tested by BLI (Fab by the footnote of Table 12)”, the Kd turned out to be 1.82 nM.

In turn, “AZD8895 as tested by BLI (Fab by the footnote of Table 12)” came in with a Kd of 1.49 nM.

The substance “AZD1061 as tested by BLI (Fab by the footnote of Table 12)” returned a Kd of 1.04 nM.
